B1: Twister Ribozyme (parent)
chain: AACACUGCCAAUGCCGGUCCCAAGCCCGGAUAAAAGUGGAGGGGGCGG

Variants of: B1
Test: self-cleavage, relative activity (ratio to wild type); higher = more cleavage; co-transcriptional

| Variant | self-cleavage |
| --- | --- |
| AACACUGCCAAUGCCAGUCCCAAUCCCGGAUAAAAGUGGAGGGGGCGG [G16A G24U] | 0.113 |
| AACACUGCCAAUGCCAGUCCCAAGCCCGGAUAAUAGUGGAGGGGGCGG [G16A A34U] | 0.417 |
| AACACUGCCAAUGCUGGUCCCAAGCCCGGAUAAAAGUGGACGGGGCGG [C15U G41C] | 0.209 |
| AACACUGCCAAUGCUGGUCCCAAGCCUGGAUAAAAGUGGAGGGGGCGG [C15U C27U] | 0.542 |
| AACACUGCCAAUGCUGGACCCAAGCCCGGAUAAAAGUGGAGGGGGCGG [C15U U18A] | 0.379 |
| AACACUGCCAAUGCCAGUCCCAAGCCCGGAUAAAAGUGGAUGGGGCGG [G16A G41U] | 0.396 |
| AACACUGCCAAUGCCAGUCCCAAGCCCGGAUAAAAGUGGACGGGGCGG [G16A G41C] | 0.167 |
| AACACUGCCAAUGCUGGUCCCAAGCCCGGAUAAAUGUGGAGGGGGCGG [C15U A35U] | 0.915 |
| AACACUGCCAAUGCUGGUCCCAAGCCCGGAUAAAGGUGGAGGGGGCGG [C15U A35G] | 0.659 |
| AACACUGCCAAUGCUGGUCUCAAGCCCGGAUAAAAGUGGAGGGGGCGG [C15U C20U] | 0.845 |
| AACACUGCCAAUGCCAGUCCCAAGCGCGGAUAAAAGUGGAGGGGGCGG [G16A C26G] | 0.112 |
| AACACUGCCAAUGCUGGUCCCAAGCCCGGAUAAAAAUGGAGGGGGCGG [C15U G36A] | 0.454 |
| AACACUGCCAAUGCUGGUCCCAAGCCCGGAUAAAAUUGGAGGGGGCGG [C15U G36U] | 0.203 |
| AACACUGCCAAUGCCAGUCCCAGGCCCGGAUAAAAGUGGAGGGGGCGG [G16A A23G] | 0.161 |
| AACACUGCCAAUGCCAGUCCCACGCCCGGAUAAAAGUGGAGGGGGCGG [G16A A23C] | 0.137 |
| AACACUGCCAAUGCCCGUCCCAAGCCCGGUUAAAAGUGGAGGGGGCGG [G16C A30U] | 0.741 |
| AACACUGCCAAUGCCCGUCCCAAGCCCGGGUAAAAGUGGAGGGGGCGG [G16C A30G] | 0.31 |
| AACACUGCCAAUGCUGGUCCCAAGCCCGGAUAAAAGUGGAGGGUGCGG [C15U G44U] | 0.988 |
| AACACUGCCAAUGCUGGUCCCAAGCCCGGAUAAAAGUGGAGGGCGCGG [C15U G44C] | 0.812 |
| AACACUGCCAAUGCCAGUCCCAAGCCCCGAUAAAAGUGGAGGGGGCGG [G16A G28C] | 0.489 |
| AACACUGCCAAUGCCAGUCCCAAGCCCAGAUAAAAGUGGAGGGGGCGG [G16A G28A] | 0.48 |
| AACACUGCCAAUGCUGGUCCCAAGCCCGGAUAAAAGUGGAGGGGGAGG [C15U C46A] | 0.944 |
| AACACUGCCAAUGCUGGUCCCAAGCCCGGAUAAAAGUGGAGGGGGGGG [C15U C46G] | 0.887 |
| AACACUGCCAAUGCCCGUCCCCAGCCCGGAUAAAAGUGGAGGGGGCGG [G16C A22C] | 0.198 |
| AACACUGCCAAUGCCCGUCCCGAGCCCGGAUAAAAGUGGAGGGGGCGG [G16C A22G] | 0.0711 |
| AACACUGCCAAUGCCAGUCCCAAGCCCGGAUAAAAGUGGAGGGGACGG [G16A G45A] | 0.891 |
| AACACUGCCAAUGCCAGUCCCAAGCCCGGAUAAAAGUGGAGGCGGCGG [G16A G43C] | 0.181 |

| Variant | self-cleavage |
| --- | --- |
| AACACUGCCAAUGCCAGUCCCAAGCCCGGAUAAAAGUGGAGGUGGCGG [G16A G43U] | 0.321 |
| AACACUGCCAAUGCUGGUCCCAAGGCCGGAUAAAAGUGGAGGGGGCGG [C15U C25G] | 0.414 |
| AACACUGCCAAUGCCCGUCCCACGCCCGGAUAAAAGUGGAGGGGGCGG [G16C A23C] | 0.0636 |
| AACACUGCCAAUGCCAGUCGCAAGCCCGGAUAAAAGUGGAGGGGGCGG [G16A C20G] | 0.158 |
| AACACUGCCAAUGCCAGUCCCAAGCCCGGAUACAAGUGGAGGGGGCGG [G16A A33C] | 0.799 |
| AACACUGCCAAUGCCAGUCCCAAGCCCGGAUAUAAGUGGAGGGGGCGG [G16A A33U] | 0.858 |
| AACACUGCCAAUGCCAGUCCCAAGCCCGGAUAAAAGUGGAGGGGGCUG [G16A G47U] | 0.487 |
| AACACUGCCAAUGCCAGUCCCAAGCCCGGAUAAAAGUGGGGGGGGCGG [G16A A40G] | 0.17 |
| AACACUGCCAAUGCCAGUCCCAAGCCCGGAUAAAAGUGGUGGGGGCGG [G16A A40U] | 0.125 |
| AACACUGCCAAUGCUGGUCCCAAGCCCGGAUAUAAGUGGAGGGGGCGG [C15U A33U] | 1.01 |
| AACACUGCCAAUGCUGGUCCCAAGCCCGGAUAGAAGUGGAGGGGGCGG [C15U A33G] | 0.802 |
| AACACUGCCAAUGCUGGUCCCAAGCCCGGAUACAAGUGGAGGGGGCGG [C15U A33C] | 0.839 |
| AACACUGCCAAUGCCAGUCCCAAGUCCGGAUAAAAGUGGAGGGGGCGG [G16A C25U] | 0.852 |
| AACACUGCCAAUGCUGGUCCCAAGCCCGGAUAAAAGUGCAGGGGGCGG [C15U G39C] | 0.146 |
| AACACUGCCAAUGCUGGUCCCAAGCCCGGAUAAAAGUGAAGGGGGCGG [C15U G39A] | 0.314 |
| AACACUGCCAAUGCUGGUCCGAAGCCCGGAUAAAAGUGGAGGGGGCGG [C15U C21G] | 0.0408 |
| AACACUGCCAAUGCCAGUCCCAAGCCCGGAUAAAAGUGGAGCGGGCGG [G16A G42C] | 0.241 |
| AACACUGCCAAUGCUGGUGCCAAGCCCGGAUAAAAGUGGAGGGGGCGG [C15U C19G] | 0.251 |
| AACACUGCCAAUGCUGGUUCCAAGCCCGGAUAAAAGUGGAGGGGGCGG [C15U C19U] | 0.902 |
| AACACUGCCAAUGCCAGUCCCAAGCCCGGAUCAAAGUGGAGGGGGCGG [G16A A32C] | 0.97 |
| AACACUGCCAAUGCCAGUCCCAAGCCCGGACAAAAGUGGAGGGGGCGG [G16A U31C] | 0.816 |
| AACACUGCCAAUGCCAGUCCCAAGCCCGGAAAAAAGUGGAGGGGGCGG [G16A U31A] | 0.958 |
| AACACUGCCAAUGCUGGUCCCAAGCCCGGAUAAAAGUGGAGGGGACGG [C15U G45A] | 0.924 |
| AACACUGCCAAUGCUGGUCCCAAGCCCGGAUAAAAGUGGAGGGGUCGG [C15U G45U] | 0.817 |
| AACACUGCCAAUGCUGGUCCCAAGCCCGGAUAAAAGUGGAGGGGCCGG [C15U G45C] | 0.64 |
| AACACUGCCAAUGCCCGUCCCAAGCCCGGAUAAGAGUGGAGGGGGCGG [G16C A34G] | 0.298 |
| AACACUGCCAAUGCCCGUCCCAAGCCCGGAUAACAGUGGAGGGGGCGG [G16C A34C] | 0.0817 |

Reference: the RNAGym collection of RNA variant scans (doi:10.7554/elife.80360)
